# Experimental data as given in patent US20190112367A1.
# How the values were obtained:
# [1] = biological target: human IL-32gamma (R&D) (human) (UniProt P24001); assay: ELISA, antigen coated at 1 µg/ml, serial dilutions of MAB
# [2] = biological target: IL-32 (isotype not stated, analyte of the SPR experiment) (UniProt P24001); assay: SPR, ProteOn XPR36, IL-32 injected over the antibody
# [3] = biological target: human IL-32gamma (R&D) (human) (UniProt P24001); assay: cell-based or functional assay
EC50 [1] [µg/mL],Kd [2] [nM],IC 50 (neutralization of IL-32γ activity) [3] [µg/mL],Binder
1.33,,,"anti-IL-32 antibody 26A6 (IgG1, lambda) (antibody, V domains shown) VH: QVQLVESGGGVVQPGRSLRLSCVASGLTFRTYGMHWVRQAPGNGLEWVAIIWHDGNKKYFADSVKGRFTISRDNSKNSLYLQMNSLRVEDTAVYYCAREMNGIDVWGQGTTVTVSS VL: SYELTQPPSVSVSPGQTARITCSGDALPETYVYWYQQKSGQAPVKLIYEDSERPSGIPERFSGSSSGTLATLTISGAHVEDEADYYCYSTDSSGIGVFGGGTKVTVLS"
0.526,4,0.3,"anti-IL-32 antibody 2C2 (IgG3, lambda) (antibody, V domains shown) VH: QLRVQESGPGLLKPAETLSLTCSVSSGSVSNSRYYWAWIRQSPGKGLEWIGSMYYRGRSYYNPSLKSRLTISIDTSKNQFSLKLTSLTAADTAVYYCAAAVYHDLDYWGQGTLVTVSS VL: QSVLTQPPSVSAAPGQKVTISCSGSGSSIGNNYVSWYQQLPGAAPKLLIYDNTKRPSGIPDRFSGSKSGTSATLAITGLQPGDAADYYCGTWDSSFSVFWVFGGGTKLTVLS"
